Laboratory results: PMC11381654, “Structural insight into interleukin‐4Rα and interleukin‐5 inhibition by nanobodies from a bispecific antibody” (MedComm, 2020)

Target: human IL‐4Rα (human, UniProt P24394, N‐glycosylation sites (modelled in the crystal structure; positions not given))
Assay: cell-based or functional assay

B1: dAb1 (VHH)
VHH: QVQLVESGGGLVQPGGSLRLSCAASGDFYCMAWFRQAPGKEREAVAAIRSGGRSTYYADSVKGRFTISRDNSKNTLYLQMNSLKAEDTAVYYCAVGVDGNCRNYWGQGTLVTVSS
  IC50 in the IL‐4‐induced TF‐1 cell proliferation assay (blocks IL‐4 with IL‐4Rα): ~0.15 nM
  IC50 in the IL‐13‐induced TF‐1 cell proliferation assay (blocks IL‐13 with IL‐4Rα): ~0.15 nM
